From publication PMC10793455 (bioRxiv, 2023)

What was measured:
[1] = target: T1, F-actin (rabbit skeletal muscle actin filaments) (rabbit, UniProt P68135 1-377, methylated His73 (His73me)); experiment: other fluorescence titration
[2] = target: T1, F-actin (rabbit skeletal muscle actin …); experiment: fluorescence polarisation
[3] = target: T1, F-actin (rabbit skeletal muscle actin …); experiment: cryo-EM structure
[4] = target: Alexa-488 labeled F-actin (rabbit skeletal muscle actin) (rabbit, UniProt P68135 1-377); experiment: single-molecule TIRF microscopy
[5] = target: T1, F-actin (rabbit skeletal muscle actin …); experiment: fluorescence polarisation; remark: listed apart in the source
[6] = target: T1, F-actin (rabbit skeletal muscle actin …); experiment: fluorescence polarisation; remark: listed apart in the source

B1: SipAC-Core (SipA residues 512–658), unlabeled (domain or fragment)
chain: TGPFSGLKFKQNSFLSTVPSVTNMHSMHFDARETFLGVIRKALEPDTSTPFPVRRAFDGLRAEILPNDTIKSAALKAQCSDIDKHPELKAKMETLKEVITHHPQKEKLAEIALQFAREAGLTRLKGETDYVLSNVLDGLIGDGSWRA
B1 gave a Kd [1] of 81 nM.

B2: SipAC (SipA residues 425–685), unlabeled (domain or fragment)
chain: TGETTSFDEVDGVTSKSIIGKPVQATVHGVDDNKQQSQTAEIVNVKPLASQLAGVENVKTDTLQSDTTVITGNKAGTTDNDNSQTDKTGPFSGLKFKQNSFLSTVPSVTNMHSMHFDARETFLGVIRKALEPDTSTPFPVRRAFDGLRAEILPNDTIKSAALKAQCSDIDKHPELKAKMETLKEVITHHPQKEKLAEIALQFAREAGLTRLKGETDYVLSNVLDGLIGDGSWRAGPAYESYLNKPGVDRVITTVDGLHMQR
For B2, the Kd [2] was 5 nM, the Kd [1] was 0.18 nM and the “stoichiometry N” value [3] was 0.5 SipAC per actin subunit.

B3: Alexa-647-SipAC (SipA residues 425–685 labeled with Alexa-647) (domain or fragment)
chain: TGETTSFDEVDGVTSKSIIGKPVQATVHGVDDNKQQSQTAEIVNVKPLASQLAGVENVKTDTLQSDTTVITGNKAGTTDNDNSQTDKTGPFSGLKFKQNSFLSTVPSVTNMHSMHFDARETFLGVIRKALEPDTSTPFPVRRAFDGLRAEILPNDTIKSAALKAQCSDIDKHPELKAKMETLKEVITHHPQKEKLAEIALQFAREAGLTRLKGETDYVLSNVLDGLIGDGSWRAGPAYESYLNKPGVDRVITTVDGLHMQR
modifications: Alexa-647 label
Work on B3 yielded a Kd [4] of 0.1 nM.

B4: FM-SipAC (SipA residues 425–685 labeled with fluorescein maleimide) (domain or fragment)
chain: TGETTSFDEVDGVTSKSIIGKPVQATVHGVDDNKQQSQTAEIVNVKPLASQLAGVENVKTDTLQSDTTVITGNKAGTTDNDNSQTDKTGPFSGLKFKQNSFLSTVPSVTNMHSMHFDARETFLGVIRKALEPDTSTPFPVRRAFDGLRAEILPNDTIKSAALKAQCSDIDKHPELKAKMETLKEVITHHPQKEKLAEIALQFAREAGLTRLKGETDYVLSNVLDGLIGDGSWRAGPAYESYLNKPGVDRVITTVDGLHMQR
modifications: fluorescein maleimide (FM) label
Binder B4 has a Kd [5] of ~0.9 nM.

B5: FM-SipAC-ΔArm2 (SipA residues 425–658 labeled with fluorescein maleimide) (domain or fragment)
chain: TGETTSFDEVDGVTSKSIIGKPVQATVHGVDDNKQQSQTAEIVNVKPLASQLAGVENVKTDTLQSDTTVITGNKAGTTDNDNSQTDKTGPFSGLKFKQNSFLSTVPSVTNMHSMHFDARETFLGVIRKALEPDTSTPFPVRRAFDGLRAEILPNDTIKSAALKAQCSDIDKHPELKAKMETLKEVITHHPQKEKLAEIALQFAREAGLTRLKGETDYVLSNVLDGLIGDGSWRA
modifications: fluorescein maleimide (FM) label
Work on B5 yielded a Kd [6] of 120 nM.
